This note sets out measurements from a protein production outcome set (Wang et al. 2014).

The nature of this series: label from the status in PepcDB records.
On to “MSSILSDTAPRFLADYRPADFTINTVNLTIHLDDTCSQVVSELTIERKGDVQQALQLNGEHLTLVSLVLDNQALSKDQYQINETLLIIPASSLPDRSHFTLIITTEINPQENTALEGLFKSGDAFCTQCEAEGFRRISYYLDRPDVMATFTTKVIADKNLYPYLLSNGNKVASGELSDNKHFVTWHDPFPKPCYLFALVAGNFDLLEDNFTTASGREVALEIFVDEGNLAKAEHAMTSLQKSMAWDEETFGLEYDLDIYMIVAVDFFNMGAMENKGLNVFNSKYVLADSHCATDSDYFNIEAVIAHEYFHNWTGNRVTCRDWFQLSLKEGLTVFRDQQFSAQMHSSAVTRIQNVRVLRSQQFAEDAGPMAHPIRPEKVLEMNNFYTLTVYEKGSEVIRMLHTLIGVDKFRQGMDLYFSRFDGMAVTCDDFINAMSDASGKDLAQFKLWYSQSGTPVIKAQEMFDSQTNIYTLTLLQQSPITKNQQNPQALHIPIKVELISDNNNEASQSELLELTQTEQSWQFSGFTSKPTLAMLADFSAPVKLIFDQNNTSLLTIMQQADNSFCRWDAGQKLLMSYLHQLTFDIDYTIPNELINAINDMLNSGGDRAFIAEQLSLPSFDEAASLMVDIDPIALTNAITTLATFIARGTQQQLLVSYKACQHEDLKDNAVANRALKNVCLSYLSLLPEYQYLVTQQYQQATNNDDILKENMTDSLAALTCSSKNNLDDLNEQLEHFENKWQQTTLVMDKWFALNASVVSEDVFTQLANLLEHPQFSLKNPNRARSLIGAFAMNNPKYFHCPTGRGYQFLADQIAKLNEINPQVASRLITPLIQFKSFAPAHQKLMKAELVKLQALTNLSNDLKEKLDAALND”, for which the protein production result is recorded as “failed”.

“MSSKDKKLSKPTSGRTGGIRTLSDLNRRSEPDSDSDSDGPQEYFTGGEKSGMLVQDPTKEPKHDDVDEIFNQARQLGAVEGPLEHPSSSRSFTGTGRLLSGESVPTALQQPEPVIHNIIFWSNGFTVDDGPLRKLDDPENASFLDSIRKSECPKELEPVDKRAPVHVNLMRRDEKCPEKEKLKVSFQGVGRTLGGASSSTASSQSNLTDVAAVQSPLQSLVVDETLPSTSIQLRLADGTRMVAKFNNHHTVNDIRGFIEFSRPGNPNNYTLQVMGFPPKPLTDPSQTIEQAGLASSVVIQKF”: the protein production result is recorded as “not failed”.

Take “MSSLNLSPAAVSELVFSQTGLALISLLLTLFCYFAAKILYQRHRVWWLAPIVLAPVVITLLVFNLDIPLPTYFEYTHWLMAMLAPATIAFALPIYRERKLIRQYPLTIAFGVIAGLLLGMVSSWLLVKFVPLPVELSKSLLVRSVSTPFAMEATGAFGGVPELTAMMVLITGIIGMLVCEPLFKLMHIRTSLGKGVALGASAHGAGAAKASELGQQEGVIASLTMIFIGIAMVLGAPFFALIFS”: the protein production result is on record as “failed”. To “MSSQSIDDKFMSITQMKNLIHYVKKNDALSHLCIYILIITGSRFKPVQHLRYEDLNFKKSCIHLNDTKNKYSKRNVKVRIKDLEYIQSVINKHPINQNGYIFHNFINFISYSAINDVLVRFCLKYKYDKYTLKSLRHTHCSYLLAKGISIQYISKRLGHADIHTTLKIYSHLIKEFEDSENSLIEKNLNDLFSDLEHHHHHH” belongs “failed”; to “MSSSGIEIAKPFVTATTNVLSTMAGIQPIPGQPYVKKNNVAKGDVSAVVGITGHKNGSISVTFTKQCAIAVVKAMLGDDIQDIIQDTKDAVGEVTNMISGQARAALSEMGMTFQGATPSVIMGDGHTISHVTKSPVIAIPFKTNHGEFTVEFCLE”, “not failed”. With “MSSSLLSVLKEKSRSLKIRNKPVKMTSQERMIVHRCRFVDFTPATITSLAFSHKSNINKLTPSDLRLAIGRSNGNIEIWNPRNNWFQEMVIEGGKDRSIEGLCWSNVNGESLRLFSIGGSTVVTEWDLATGLPLRNYDCNSGVIWSISINDSQDKLSVGCDNGTVVLIDISGGPGVLEHDTILMRQEARVLTLAWKKDDFVIGGCSDGRIRIWSAQKNDENMGRLLHTMKVDKAKKESTLVWSVIYLPRTDQIASGDSTGSIKFWDFQFATLNQSFKAHDADVLCLTTDTDNNYVFSAGVDRKIFQFSQNTNKSQKNNRWVNSSNRLLHGNDIRAICAYQSKGADFLVSGGVEKTLVINSLTSFSNGNYRKMPTVEPYSKNVLVNKEQRLVVSWSESTVKIWTMGTDSSTEQNYKLVCKLTLKDDQNISTCSLSPDGQVLVVGRPSTTKVFHLQPVGNKLKVTKLDNDLLLRTSTKLVKFIDNSKIVICSCEDDVFIVDLESEEDEKPQEVELLEVTSTKSSIKVPYINRINHLEVDQNIAVISRGCGVVDILDLKARISKPLARLNNFITAVHINTSRKSVVVITADNKIYEFNMNLNSEAENEDSESVLTQWSKNNTDNLPKEWKTLKENCVGIFSDIENSSRLWFWGATWISRIDFDVDFPINKRRKQKKRTHEGLTITDESNFMNDEEDDEDDDIDMEISENLNVLLNQGNKIKSTDVQRNEESSGHFFFTDKYKPLLFVDLISSNELAIIERNPLTFHSKQKAFIQPKLVF” the entry was “failed”; with “MSSSQQIAKNARKAGNILKTISNEGRSDILYKIHDALKANAHAIEEANKIDLAVAKETGLADSLLKRLDLFKGDKFEVMLQGIKDVAELEDPVGKVKMARELDDGLTLYQVTAPVGVLLVIFESRPEVIANITALSIKSGNAAILKGGKESVNTFREMAKIVNDTIAQFQSETGVPVGSVQLIETRQDVSDLLDQDEYIDLVVPRGSNALVRKIKDTTKIPVLGHADGICSIYLDEDADLIKAKRISLDAKTNYPAGCNAMETLLINPKFSKWWEVLENLTLEGGVTIHATKDLKTAYFDKLNELGKLTEAIQCKTVDADEEQDFDKEFLSLDLAAKFVTSTESAIQHINTHSSRHTDAIVTENKANAEKFMKGVDSSGVYWNASTRFADGFRYGFGAEVGISTSKIHARGPVGLDGLVSYQYQIRGDGQVASDYLGAGGNKAFVHKDLDIKTVTLZ”, “not failed”.

As to “MSSSSSVPAYLGDEDLTQETRALISSLPKEKGWLVSEIYEFQGLWHTQAILQGILICQKRFEAKDSDIILVTNPKSGTTWLKALVFALLNRHKFPVSSSGNHPLLVTNPHLLVPFLEGVYYESPDFDFSSLPSPRLMNTHISHLSLPESVKSSSCKIVYCCRNPKDMFVSLWHFGKKLAPEETADYPIEKAVEAFCEGKFIGGPFWDHILEYWYASRENPNKVLFVTYEELKKQTEVEMKRIAEFLECGFIEEEEVREIVKLCSFESLSNLEVNKEGKLPNGIETKTFFRKGEIGGWRDTLSESLAEEIDRTIEEKFKGSGLKFSS”, the protein production result was “not failed”. To “MSSSTSQDFVSRPVIKKVFAKLQKEGDGAVVRRGISRSEQKLLDPFLMLDEFSVSPPAGFPDHPHRGITHQDFKGHKGTIYAGDVQWMTAGRGIIHSEMPEEEVNKEPNYQELSHSDIPKAEQNGVEVKVIAGESMGIQSPVYTRTPTMFLDFTLQPGAQIHQNVPESWNAFAYILESGEGGGVFSSSNSSPIPAHSVVVFGPGNDGVSVWNKSSSKQLRFVLIAGEPIGEPVVQYGPFVMNTQAEIDMTIEDYHYGKNGFEMAKYWRSQ” belongs “failed”; to “MSSVPRFWRNLGSRYNLEGTRCKECGEYFYPPRNVCVNCRRMGELEPFKFKGTGEIVSYTLIHTGAEGFEGQAPYTLAIIKLDEGPRLTSQVVGNTDNIQIGTRVRSVFRKLGEDGERGMIYYGTKFVPVDALEHHHHHH”, “not failed”.

Turning to “MSSVSEVNVDIKDFLMSINLEQYLLHFHESGFTTVKDCAAINDSLLQKIGISPTGHRRRILKQLQIILSKMQDIPIYA”, the protein production result was “not failed”. “MSTKDKYDILNLCFYEKEAIMANVLFLVGSLRDGSFNHQMAKKAEAFLTDKAQVSYIDLAKIPLFNQDIETPILPEIAELRAQVDAADAIWIFSPVYNYAIPGIVKNALDWLSRSLDLSNPKGPSILQDKITTVSAVANSGHDHLFKDFQHLLPFIRTQIAGEFTGSTINPEAWGTGVLELSDETLTKLEQQVADLLAAIQ”: the protein production entry is “failed”.
